For this data set, the system named is MEL202 cells (SF3B1R625G). As to the kind of experiment: RT-PCR of synthetic intron excision in uveal melanoma cells. Format: cell-based. The conditions noted are these: endogenous SF3B1R625G. From the text:
FIGS. 9A-9H: Branchpoint manipulation and combinatorial 3′ss mutations enhance SF3B1 mutation-dependent splicing. (9A) Diagrams of modifications in each intron relative to synMTERFD3i1-150. Deletions are specified as open intervals. Branchpoints were inserted in between the indicated positions. (9B) Relative viability of K562 cells expressing the indicated constructs, measured in the full screen. Relative viability estimated as fold-change in representation of each construct, measured by full-length intron sequencing from genomic DNA, at day 8 for GCV-treated relative to untreated samples. GCV concentration, 100 ug/mL. Vector is hPGK-PuroR-P2A-HSV-TK. Data represented as mean±s.d. Standard deviation was estimated as sample proportion standard deviation. (9C) Relative viability of K562 cells expressing the indicated constructs, measured in cells expressing each construct individually. […] Relative viability measured by ATP after 11 days of treatment and normalized to PBS-treated samples. […]
Total RNA was extracted using Direct-zol RNA Miniprep (Zymo Research). cDNA was synthesized using Superscript IV Reverse Transcriptase (Thermo Fisher Scientific) using the manufacturer's protocol. Amplicons were analyzed using agarose gel electrophoresis and quantified using ImageJ (Fiji). […]

B1: intron_26: 150 nt MTERFD3 intron 1-derived synthetic intron, deletion 25to125; SEQ ID NO 58/66 (nucleic acid)
DNA 1: GTGAGTCGCCCCCTTCCTCTGCTCCGAGAGGGAAATGGGAATTAGGGTGGTGGCAGAGCCCAAAGAGGCCTTGTAGGCCATGGTAAGGCATTTCTATGTTTTATTTTACTTTGTCTTTATCCTAAAATGCCATTGGCAAGTTTATTGCAG
DNA 2: GTGAGTCGCCCCCTTCCTCTGCTCCGAGAGGGAAATGGGAATTAGGGTGGTGGCAGAGCCCAAAGAGGCCTTGTAGGCCATGGTAAGGCATTTCTATGTTTTATTTTACTTTGTCTTTATCCTAAAATGCCATTGGCAAGTTTATTGCAG
Turning to B1, the “excision / splicing of the synthetic intron (RT-PCR)” value is “excised in the context of endogenous SF3B1R625G, although less efficiently than for SF3B1K700E”.

The record behind these values is patent publication US20240018513A1, “SYNTHETIC INTRONS FOR TARGETED GENE EXPRESSION” (FRED HUTCHINSON CANCER CENTER, priority 2020, published 2024).
